Measured values as given in doi:10.1101/2025.04.28.650843.
Values joined by “and” are separate entries in the source; they are usually repeats but may differ in a detail not shown here. Equal entries are not always repeated.

Biological target: allophycocyanin (AP) (Synechococcus elongatus PCC 7942)
Assay: cryo-EM structure

Question: allophycocyanin (AP) (complex) was tested. Which stoichiometry N did it give?
Answer: 3 and 6
